Key:
[1] = target: human non-cleavable membrane bound TNFα on CHO cells (human) (UniProt P01375); experiment: cell-based or functional assay
human TNFα (human) = human TNFα (human) (UniProt P01375); experiment: cell-based or functional assay
Chain of human TNFα (human) (P01375 77-233 limits assumed): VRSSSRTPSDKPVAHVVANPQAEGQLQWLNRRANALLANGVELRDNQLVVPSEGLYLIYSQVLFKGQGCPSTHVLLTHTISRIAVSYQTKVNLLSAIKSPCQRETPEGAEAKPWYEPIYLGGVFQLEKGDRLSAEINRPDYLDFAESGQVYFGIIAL

Chain of human non-cleavable membrane bound TNFα on CHO cells (human) (P01375 whole entry): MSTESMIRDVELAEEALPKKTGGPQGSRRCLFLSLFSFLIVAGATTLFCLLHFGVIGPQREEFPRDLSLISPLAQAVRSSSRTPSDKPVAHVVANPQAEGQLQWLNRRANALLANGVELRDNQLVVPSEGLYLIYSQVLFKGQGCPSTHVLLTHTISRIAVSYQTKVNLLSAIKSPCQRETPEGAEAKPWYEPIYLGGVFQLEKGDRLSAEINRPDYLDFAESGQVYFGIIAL

For adalimumab with IgG4 isotype (antibody), the IC50, inhibition of killing of L929 cells by human non-cleavable membrane bound TNFα CHO cells (MTT) [1] was 0.669 nM, the Average % inhibition of human TNFα-induced CXCL1 production in vivo (mouse plasma) (human TNFα (human)) was 89.4% and the IC50, inhibition of TNFα-induced killing of L929 cells (MTT) (human TNFα (human)) was 0.243 nM.

— patent publication US20140255406A1
